Reference: patent US5968514
Where “and” joins values, the source holds several entries; their conditions need not be identical. Equal values may be shown once.

How the values were obtained:
[1] = molecular target: human class II MHC molecules on Raji cells; test: competition with ^125 I-HIV-1 Nef(123-160) on Raji cells
[2] = molecular target: class II MHC antigens on antigen-presenting cells of human peripheral mononuclear cells
[3] = molecular target: class II MHC antigens on antigen-presenting cells of human peripheral mononuclear cells; remark: listed apart in the source
[4] = molecular target: class II MHC antigens on antigen-presenting cells of human peripheral mononuclear cells; remark: listed apart in the source
[5] = molecular target: HLA-DR on Raji cells (human); test: antibody blocking of labelled peptide binding to Raji cells
[6] = molecular target: human class II MHC molecules on Raji cells; test: competition with ^125 I-SEA on Raji cells
[7] = molecular target: DR1 on DR1-transfected L cells (Homo sapiens (Human)) (UniProt P01903)
[8] = molecular target: human class II MHC molecules on Raji cells
[9] = molecular target: murine class II MHC molecules on A20 cells (I-A^d and I-E^d)
[10] = molecular target: murine class II MHC molecules on A20 cells (I-A^d and I-E^d); test: dose-response competition with ^125 I-SEA on A20 cells
[11] = molecular target: murine class II MHC molecules on A20 cells (I-A^d and I-E^d); test: competition with ^125 I-MMTV ORF(76-119) on A20 cells
[12] = molecular target: human class II MHC molecules on Raji cells; remark: listed apart in the source

Q: How did the IC50 [1] turn out when SEE (from UniProt P12993) (ligand) was run?
A: The IC50 was 2000 nM.

Q: What does the source list for “HIV-1 Nef protein (from UniProt P03406) (ligand)”?
A: IFNγ (U/ml) in supernatants of whole PMNC, 96 h [2]: 1500 U/ml; stimulation index (SI) of proliferation of whole human PMNC [3]: 26.4 SI

Q: Which results are given for HIV-1 Nef(156-186) (peptide)?
A: stimulation index (SI) of human PMNC proliferation induced by Nef [4]: 19.6 SI; stimulation index (SI) of human PMNC proliferation induced by SEA [4]: 16.6 SI

Q: For “Clone L243, a monoclonal antibody specific for HLA-DR”, which percent reduction of ^125 I-HIV-1 Nef(123-160) binding [5] is on record?
A: Its percent reduction of ^125 I-HIV-1 Nef(123-160) binding is 35%.

Q: “staphylococcal enterotoxin A (from UniProt P0A0L2) (ligand)” was tested. Which IC50 [6] did it give?
A: Its IC50 is 200 nM.

Q: And the CPM bound in the absence of competitors [7]?
A: Its CPM bound in the absence of competitors is 5710 CPM.

Q: What about the CPM bound in the absence of competitors [8] of the same substance?
A: Its CPM bound in the absence of competitors is 31500 CPM.

Q: What about the IFNγ (U/ml) in supernatants of whole PMNC, 72 h [2] of the same substance?
A: Its IFNγ (U/ml) in supernatants of whole PMNC, 72 h is 3000 U/ml.

Q: What about the CPM bound in the absence of competitors [9] of the same substance?
A: The CPM bound in the absence of competitors was 6380 CPM.

Q: What about the fold more effective a competitor than MMTV ORF(76-119) [10] of the same substance?
A: The fold more effective a competitor than MMTV ORF(76-119) was 20 times.

Q: What about the stimulation index (SI) of proliferation of whole human PMNC [3] of the same substance?
A: Its stimulation index (SI) of proliferation of whole human PMNC is 164 SI.

Q: What about the IC50 [11] of the same substance?
A: The IC50 was 1800 nM.

Q: What does the source list for HIV-1 Nef(123-160) (peptide)?
A: stimulation index (SI) of human PMNC proliferation induced by Nef [4]: 3.9 SI; stimulation index (SI) of human PMNC proliferation induced by SEA [4]: 6.2 SI; IC50 [1]: 30000 nM; percent reduction of ^125 I-SEA binding [12]: 20% and 40%
